For one experiment, the system named is Healthy Rats. As to the kind of experiment: ICV infusion in healthy rats, BrdU / NeuN labelling. The format is in vivo, rat. The method, then: Male rats (12 hours light/dark regime; feeding and drinking ad libitum; 5 animals in standard cage) were infused (Alzet minipumps) in the left lateral ventricle with human recombinant PDGF-BB for 7 days at a daily dose of 36 ng/day (8 animals/group). Human recombinant BDNF (brain derived neurotrophic factor) was used as a positive control (Pencea V et al., J. Neurosci Sep. 1 (2001), 21(17):6706-17). Bromodeoxyuridine (BrdU) was also included in the infusion vehicle (artificial cerebrospinal fluid) to enable measurement of proliferation by quantitation of BrdU incorporation in the DNA. Animals were sacrificed at 7 (proliferation) or 28 days (neurogenesis) after start of treatment and brains were dissected and prepared for sectioning and immunohistochemistry (Pencea V et al., J. Neurosci Sep. 1 (2001), 21(17):6706-17).
Proliferation was measured by BrdU incorporation and diaminobenzidine (DAB) staining of HRP conjugated secondary antibodies (FIG. 7). Cells were counted in a phase contrast microscope. Neural phenotype was assessed by staining for neuronal marker NeuN by immunocytochemistry using a fluorescence readout. The secondary antibodies were labeled with FITC or Alexa Fluor568. In double staining analyses designed to measure neurogenesis, BrdU and NeuN were quantitated by fluorescence (above) and counting of cells was done in a confocal microscope. For further experimental details, see Pencea V et al., J. Neurosci Sep. 1 (2001), 21(17):6706-17. A number of brain regions were analysed.

In another experiment the test system is 6-OHDA Lesioned Rats. As to the kind of experiment: i.c.v. infusion in 6-OHDA lesioned rats, BrdU / NeuN labelling. In kind it is in vivo, rat. As to conditions: for numbers of BrdU labelled cells in the denervated striatum: compared to PBS infusion. The method, then:
Animal handling and surgical procedures were carried out according to the ethical and regulatory permits set forth by Jordbruksverket and Lund University. Adult female Sprague-Dawley rats (B&K Universal AB) rats weighing 220-250 g, were housed in pairs with a 12 h light-dark cycle with free access to food and water. To lesion the substantia nigra, rats were fixed into a stereotaxic frame and 6-OHDA ([…] in 0.02% ascorbate saline, Sigma) was injected at a rate of 1 μl/min in 2 deposits of 2 and 2.5 μl into the right ascending mesostriatal forebrain bundle at the following coordinates: 4.4 mm caudal to bregma, 1.2 mm lateral to midline, 7.8 mm below dura; 4.0 mm caudal, 0.8 mm lateral, 8.0 mm below dura, respectively (Paxinos and Watson, 1998). Three weeks after 6-OHDA injections, the completeness of the lesion was assessed with the amphetamine-induced rotation test. D-methylamphetamine (2.5 mg, i.p.) was injected 5 min prior to placing the rat in an automated rotormeter bowl that measured the number of rotations over 90 min.
Before implantation, an Alzet Model 2002 osmotic minipump (200 μl; flow rate: 0.5 μl/h, 12 μl/day) was prefilled with 200 μl of compound solution (see below) and placed in a NaCl (0.9%) solution warmed in water bath (37° C.) 36 hrs before implantation. Rats were anesthetized with halothane in a mixture of nitrous oxide/oxygen (70:30) and maintained with 2-3% halothane. For implantation, rats were placed in a stereotaxic frame and the cannula of the Alzet Brain Infusion kit II was placed into the right lateral ventricle (coordinates: AP=−0.3 mm posterior bregma, L=1.5 mm lateral to satura sagittalis, 4.5 mm the dura; Paxinos and Watson, 1998), and secured to the skull with screws and dental cement. The minipump was then placed subcutaneously in the mid-scapular region. The scalp was treated with lidocaine gel before suturing. Twelve days after insertion, the rats were briefly anaesthetized with halothane in order to remove the pump. Removed pumps had the remaining solution volume and weight recorded.
The effects of infused PDGF-BB and BDNF following 6-OHDA lesions were investigated at 2 different time points: at 12 days or 5 weeks after minipump insertion. Rats receiving human PDGF-BB (order # 220-BB-050; 50 μg, R&D Systems) each had 36 ng/d of PDGF dissolved in 0.1 M PBS (3 μg/ml). Rats receiving human recombinant BDNF (order # 248-BD-025; 25 μg, R&D Systems) each had 12 ng/d of BDNF dissolved in 0.1 M PBS (1 μg/ml). BrdU was co-administered with the compound solution in the minipumps by dissolving it into the 0.1 M PBS medium. Control rats received only BrdU/PBS infusions.
Brain tissue was obtained by anesthetizing the rat and transcardially perfusing with 0.9% saline followed by 4% paraformaldehyde (PFA). Brains were stored PFA for 2 hours, then transferred to 20% sucrose PBS and sectioned coronally on a sledge microtome at 30 μm thickness. Free-floating sections were stored in Walter's antifreeze solution at 4° C. until staining.
Following blocking, incubation of monoclonal rat anti-BrdU antibody (Harlan Sera Lab, UK) in 2% blocking solution occurred at a dilution of 1:100 at 4° C. for 36 hrs. The sections were then incubated with biotin-horse-[…] antibody (1:200) (Vector, CA) in 2% blocking solution for 2 hr and visualized with DAB-NiCl Vectastain Elite kit. The procedure for doubling labeling of BrdU with NeuN or TH was similar, except that a monoclonal rat anti-BrdU antibody (1:100; Sigma, Sweden) was incubated either with a monoclonal mouse anti-NeuN antibody (1:100; Chemicon, USA) or with a monoclonal anti-TH antibody (1:1000; Pelfreeze) in the appropriate 2% blocking solution in the dark for 36 to 48 hrs. For immunofluorescent visualization, sections were incubation in secondary antibodies: Cy3-conjugated donkey anti-rat (1:200; Jackson ImmunoResearch, PA) for BrdU; a biotinylated horse anti-mouse antibody (1:200; BA2001, Vector, CA) for NeuN; and a FITC-conjugated goat anti-rat (1:200;) for TH. […]

The subject of experiment [1] is rat neural stem cells from the adult lateral ventricle wall. As to the kind of experiment: Expansion of rat neural stem cell cultures, total cell counts at 7 days. The format is cell-based. The following applies: different concentrations, 7 days; FIG. 24, FIG. 25. The method, then:
Neural stem cells were prepared according to the attached protocol. Cells were grown in serum-free medium, subcloned and used between passage 6 and 10. If not otherwise mentioned the experiments consisted of triplets for analysis and were independently repeated at least 3 times.
Basal Medium: Neurobasal medium (NB, Gibco BRL) & B27 supplement (Gibco BRL).
Growth Medium: NB, B27 supplement+20 ng/ml of FGF-2 (R&D Systems)+20 ng/ml EGF (R&D Systems)+2 μg/ml heparin (Sigma, Germany).
Cells were plated in Growth medium at 10.000 cells/ml and after 2 days switched to the experimental condition. Cells were kept under the experimental condition for 7 days.
Adult female Fischer-344 rats (3-4 months; Charles River, Germany) were killed via cervical dislocation, the brains of each rat were removed and stored at 4° C. in DPBS (PAN, Germany) with 4.5 g/L glucose (Merck, Germany) (DPBS/glu). Overlying meninges and blood vessels were removed. Ependymal zone including subependymal/subventricular zone form the lateral wall of the lateral ventricle were aseptically removed. […] Live cells were counted by trypan blue exclusion assay in a hemocytometer. […]
The culture medium containing floating neurospheres was collected in a 15 ml centrifuge tube and centrifuged at 800 rpm. […] An aliquot was counted by trypan blue exclusion assay in a hemocytometer to determine the amount of live and dead cells. […]

The values that follow come from patent publication US7981863B2, “Treatment of Parkinson's disease with PDGF” (Neuronova AB, priority 2001, dated 2011).

B1: BDNF: Human recombinant BDNF (brain derived neurotrophic factor), used as a positive control (protein, UniProt P23560 19-247, looked up)
Neurotrophic factor BDNF …: APMKEANIRGQGGLAYPGVRTHGTLESVNGPKAGSRGLTSLADTFEHVIEELLDEDQKVRPNEENNKDADLYTSRVMLSSQVPLEPPLLFLLEEYKNYLDAANMSMRVRRHSDPARRGELSVCDSISEWVTAADKKTAVDMSGGTVTVLEKVPVSKGQLKQYFYETKCNPMGYTKEGCRGIDKRHWNSQCRTTQSYVRALTMDSKKRIGWRFIRIDTSCVCTLTIKRGR
Regarding B1, the “Cell count (BrdU, proliferation) along the lateral ventricle wall” value in the experiment on Healthy Rats (7-day group, ICV infusion 7 days, 36 ng/day, mean of two sections, mean +/- sem) is 177 +/−15. Also, the “number of proliferating cells in the subventricular zone” value in the experiment with Healthy Rats (28-day group) was “slight effect”. Further, the “neurogenesis in the striatum” value in the experiment with Healthy Rats (28-day group, in comparison to vehicle treated animals) is “significantly increase neurogenesis”. In addition, the “BrdU positive cells in the dentate gyrus, the CA1 and the alveus” value in the experiment with Healthy Rats (28-day group, in comparison to vehicle-treated animals) is listed as “no significant effect”. The “BrdU positive cells in the striatum” value in the experiment with Healthy Rats (28-day group, cells counted in 300 × 300 μm squares) is 39.8 ± 7.3 (p < 0.01 to vehicle, ANOVA). Moreover, the “absolute number of BrdU/NeuN double labelled cells in the striatum” value with 6-OHDA Lesioned Rats (5 weeks, FIG. 15) is recorded as “significantly more neurons”. Further, the “numbers of BrdU labelled cells in the denervated striatum” value in the experiment with 6-OHDA Lesioned Rats (12 days after infusion, PDGF 36 ng/d, BDNF 12 ng/d) is on record as “significantly elevated”; in the experiment with 6-OHDA Lesioned Rats (at 5 weeks), “significant increases”. Further, the “numbers of BrdU labelled cells in the lesioned substantia nigra” value in the experiment on 6-OHDA Lesioned Rats (12 days after infusion, compared to PBS treatment) is given as “significantly elevated”. In addition, the “BrdU cells in the striatum co-labelled with NeuN (proportion of newly generated neurons)” value in the experiment with 6-OHDA Lesioned Rats (Week 5, no statistically significant differences) worked out at 16.6%.

B2: VEGF-A121: VEGF isoform that can only bind to the Flk-1 receptor (protein)
chain: APMAEGGGQNHHEVVKFMDVYQRSYCHPIETLVDIFQEYPDEIEYIFKPSCVPLMRCGGCCNDEGLECVPTEESNITMQIMRIKPHQGQHIGEMSFLQHNKCECRPKKDRARQEKCDKPRR
Consider B2, for which the “stimulation of proliferation of neural stem cell cultures” value in experiment [1] is listed as “significant stimulation”.

B3: VEGF-A165: VEGF isoform that can bind to flk-1, flt-1 and neuropilin-1 (protein)
chain: APMAEGGGQNHHEVVKFMDVYQRSYCHPIETLVDIFQEYPDEIEYIFKPSCVPLMRCGGCCNDEGLECVPTEESNITMQIMRIKPHQGQHIGEMSFLQHNKCECRPKKDRARQENPCGPCSERRKHLFVQDPQTCKCSCKNTDSRCKARQLELNERTCRCDKPRR
For the molecule B3, the “stimulation of proliferation of neural stem cell cultures” value in experiment [1] is given as “significant stimulation”.
